The chains are these.
B1: Azoarcus group I ribozyme (parent)
chain: GUGCCUUGCGCCGGGAAACCACGCAAGGGAUGGUGUCAAAUUCGGCGAAACCUAAGCGCCCGCCCGGGCGUAUGGCAACGCCGAGCCAAGCUUCGGCGCCUGCGCCGAUGAAGGUGUAGAGACUAGACGGCACCCACCUAAGGCAAACGCUAUGGUGAAGGCAUAGUCCAGGGAGUGGCGAAAGUCACACAAACCGG

The variants in this series derive from B1. Kind of series: reverse-splicing fitness (ratio to wild type); higher = more active; in vitro selection; Mg2+ level not given. The method in brief: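 An in vitro group I ribozyme library with randomized positions was T7-transcribed and gel-purified. In triplicate, 10 pmol RNA in EPPS pH 7.5 was reacted with 50 pmoles of a 30-nt RNA substrate for 1 h at 37 °C across several added MgCl2 levels (1–48 mM), then stopped with EDTA. Products were reverse transcribed from a substrate-complementary primer, PCR-amplified and sequenced (HiSeq 4000). Fitness is a variant's read proportion after selection over that before, normalised to wild type.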
As for GUGCCUUGCGCCGGGAAACCACGCAAGGGAUGGUGUCAAAUUCGGCGAAACCUAAGCGCCCGCCCGGGCGUAUGGCAACGCCGAGCCAAGCUUCGGCGCCUGCGCCGAUGGAGGUGUAGGGACUAGACGGCACCCACCUAAGGCAAACGGUAUGGUGAAGGCAUAGUCAAGGGAGCGGCGAAAGUCACACAAACCGG [A111G A120G C150G C169A U176C], the reverse-splicing fitness stood at 0.0116. As for GUGCCUUGCGCCGGGAAACCACGCAAGGGAUGGUGUCAAAUUCGGCGAAACCUAAGCGCCCGCCCGGGCGUAUGGCAACGCCGAGCCAAGCUUCGGCGCCUGCGCCGAUGGAGGUGUAGGGACUAGACGGCACCCACCUAAGGCAAACGGUAUGGUGAAGGCAUAGUCAAGGGAGGGGCGAAAGUCACACAAACCGG [A111G A120G C150G C169A U176G], the reverse-splicing fitness stood at 0.00604.

As to GUGCCUUGCGCCGGGAAACCACGCAAGGGAUGGUGUCAAAUUCGGCGAAACCUAAGCGCCCGCCCGGGCGUAUGGCAACGCCGAGCCAAGCUUCGGCGCCUGCGCCGAUGGAGGUGUAGGGACUAGACGGCACCCACCUAAGGCAAACGGUAUGGUGAAGGCAUAGUCAAGGGAGAGGCGAAAGUCACACAAACCGG [A111G A120G C150G C169A U176A], the reverse-splicing fitness was determined as 0.00862. In the case of GUGCCUUGCGCCGGGAAACCACGCAAGGGAUGGUGUCAAAUUCGGCGAAACCUAAGCGCCCGCCCGGGCGUAUGGCAACGCCGAGCCAAGCUUCGGCGCCUGCGCCGAUGGAGGUGUAGGGACUAGACGGCACCCACCUAAGGCUAACGCUAUGGUGAAGGCAUAGUCCAGGGAGAGGCGAAAGUCACACAAACCGG [A111G A120G A145U U176A] it was 0.0829. In the case of GUGCCUUGCGCCGGGAAACCACGCAAGGGAUGGUGUCAAAUUCGGCGAAACCUAAGCGCCCGCCCGGGCGUAUGGCAACGCCGAGCCAAGCUUCGGCGCCUGCGCCGAUGGAGGUGUAGGGACUAGACGGCACCCACCUAAGGCUAACGCUAUGGUGAAGGCAUAGUCCAGGGAGCGGCGAAAGUCACACAAACCGG [A111G A120G A145U U176C] it was 0.116; in that of GUGCCUUGCGCCGGGAAACCACGCAAGGGAUGGUGUCAAAUUCGGCGAAACCUAAGCGCCCGCCCGGGCGUAUGGCAACGCCGAGCCAAGCUUCGGCGCCUGCGCCGAUGGAGGUGUAGGGACUAGACGGCACCCACCUAAGGCUAACGCUAUGGUGAAGGCAUAGUCCAGGGAGGGGCGAAAGUCACACAAACCGG [A111G A120G A145U U176G], 0.00952; in that of GUGCCUUGCGCCGGGAAACCACGCAAGGGAUGGUGUCAAAUUCGGCGAAACCUAAGCGCCCGCCCGGGCGUAUGGCAACGCCGAGCCAAGCUUCGGCGCCUGCGCCGAUGGAGGUGUAGGGACUAGACGGCACCCACCUAAGGCAAACGAUAUGGUGAAGGCAUAGUCAAGGGAGAGGCGAAAGUCACACAAACCGG [A111G A120G C150A C169A U176A], 0.0205. In the case of GUGCCUUGCGCCGGGAAACCACGCAAGGGAUGGUGUCAAAUUCGGCGAAACCUAAGCGCCCGCCCGGGCGUAUGGCAACGCCGAGCCAAGCUUCGGCGCCUGCGCCGAUGGAGGUGUAGGGACUAGACGGCACCCACCUAAGGCAAACGAUAUGGUGAAGGCAUAGUCAAGGGAGGGGCGAAAGUCACACAAACCGG [A111G A120G C150A C169A U176G] it was 0.00486; in that of GUGCCUUGCGCCGGGAAACCACGCAAGGGAUGGUGUCAAAUUCGGCGAAACCUAAGCGCCCGCCCGGGCGUAUGGCAACGCCGAGCCAAGCUUCGGCGCCUGCGCCGAUGGAGGUGUAGGGACUAGACGGCACCCACCUAAGGCAAACGAUAUGGUGAAGGCAUAGUCAAGGGAGCGGCGAAAGUCACACAAACCGG [A111G A120G C150A C169A U176C], 0.0244.

Take GUGCCUUGCGCCGGGAAACCACGCAAGGGAUGGUGUCAAAUUCGGCGAAACCUAAGCGCCCGCCCGGGCGUAUGGCAACGCCGAGCCAAGCUUCGGCGCCUGCGCCGAUGGAGGUGUAGGGACUAGACGGCACCCACCUAAGGCAAACGGUAUGGUGAAGGCAUAGUCAAGGGAGUGGCGAAAGUCACACAAACCGG [A111G A120G C150G C169A]: the reverse-splicing fitness worked out at 0.0164. In the case of GUGCCUUGCGCCGGGAAACCACGCAAGGGAUGGUGUCAAAUUCGGCGAAACCUAAGCGCCCGCCCGGGCGUAUGGCAACGCCGAGCCAAGCUUCGGCGCCUGCGCCGAUGGAGGUGUAGGGACUAGACGGCACCCACCUAAGGCAAACGAUAUGGUGAAGGCAUAGUCUAGGGAGAGGCGAAAGUCACACAAACCGG [A111G A120G C150A C169U U176A] it was 0.0272. In the case of GUGCCUUGCGCCGGGAAACCACGCAAGGGAUGGUGUCAAAUUCGGCGAAACCUAAGCGCCCGCCCGGGCGUAUGGCAACGCCGAGCCAAGCUUCGGCGCCUGCGCCGAUGGAGGUGUAGGGACUAGACGGCACCCACCUAAGGCAAACGAUAUGGUGAAGGCAUAGUCUAGGGAGGGGCGAAAGUCACACAAACCGG [A111G A120G C150A C169U U176G] it was 0.00819; in that of GUGCCUUGCGCCGGGAAACCACGCAAGGGAUGGUGUCAAAUUCGGCGAAACCUAAGCGCCCGCCCGGGCGUAUGGCAACGCCGAGCCAAGCUUCGGCGCCUGCGCCGAUGGAGGUGUAGGGACUAGACGGCACCCACCUAAGGCAAACGAUAUGGUGAAGGCAUAGUCUAGGGAGCGGCGAAAGUCACACAAACCGG [A111G A120G C150A C169U U176C], 0.0286. As to GUGCCUUGCGCCGGGAAACCACGCAAGGGAUGGUGUCAAAUUCGGCGAAACCUAAGCGCCCGCCCGGGCGUAUGGCAACGCCGAGCCAAGCUUCGGCGCCUGCGCCGAUGGAGGUGUAGGGACUAGACGGCACCCACCUAAGGCUAACGCUAUGGUGAAGGCAUAGUCUAGGGAGUGGCGAAAGUCACACAAACCGG [A111G A120G A145U C169U], the reverse-splicing fitness is 0.232. In the case of GUGCCUUGCGCCGGGAAACCACGCAAGGGAUGGUGUCAAAUUCGGCGAAACCUAAGCGCCCGCCCGGGCGUAUGGCAACGCCGAGCCAAGCUUCGGCGCCUGCGCCGAUGGAGGUGUAGGGACUAGACGGCACCCACCUAAGGCAAACGAUAUGGUGAAGGCAUAGUCCAGGGAGCGGCGAAAGUCACACAAACCGG [A111G A120G C150A U176C] it was 0.0301.

The record behind these values is the RNAGym collection of RNA variant scans (doi:10.1093/molbev/msab373).
